The values below come from patent US5766899.

Assay [1] deals with CS receptor on primary mouse hepatocytes (mouse).
The target is the same in assay [2]. This is another data set of the same source.
Substrate in assay [3]: CS receptor on primary mouse hepatocytes (mouse)
The source holds these as a separate data set.

Where only a bound is given, the exact number is not on record here.

“BSA/poly(L-lysine) conjugate (from UniProt P02769)” yielded a transfection efficiency of primary hepatocytes (X-gal staining) (% transfection efficiency) in assay [1] of less than 10.

As to poly(L-lysine), in assay [1], the transfection efficiency of primary hepatocytes (X-gal staining) (% transfection efficiency) is less than 5.

“DHFR-CSF1-His6/poly(L-lysine) conjugate (from UniProt P00375)”: the Blue cells (%) after transfection of primary hepatocytes with conjugate/pCMV-β-gal DNA complex (X-gal staining) in assay [2] was less than 1 % blue cells.

EWSPCSVTCGNGIQVRIKPGSAN [Peptide E35]: the inhibition of β-galactosidase activity (ONPG) in CS27IVC-His6 conjugate-mediated gene transfer into primary hepatocytes (% inhibited at 0.125 µM) in assay [3] was determined as 50.
